Literature values as cited in PMC4448168.

Target: α7 nAChR (UniProt P36544)
UniProt P36544, sequence (P36544 23-502): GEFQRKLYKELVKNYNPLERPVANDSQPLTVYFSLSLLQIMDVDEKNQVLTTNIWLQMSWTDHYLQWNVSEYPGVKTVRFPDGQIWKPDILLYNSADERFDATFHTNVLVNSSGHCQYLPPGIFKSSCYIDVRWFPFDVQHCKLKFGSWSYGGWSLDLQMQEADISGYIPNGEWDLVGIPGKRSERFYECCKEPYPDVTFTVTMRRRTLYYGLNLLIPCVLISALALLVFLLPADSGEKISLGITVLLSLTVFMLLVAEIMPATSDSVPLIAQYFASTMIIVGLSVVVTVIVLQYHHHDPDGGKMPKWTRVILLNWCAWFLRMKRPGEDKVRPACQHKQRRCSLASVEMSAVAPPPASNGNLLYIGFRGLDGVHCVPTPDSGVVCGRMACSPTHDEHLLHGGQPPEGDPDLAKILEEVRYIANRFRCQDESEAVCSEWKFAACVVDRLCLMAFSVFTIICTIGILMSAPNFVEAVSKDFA

In the case of α-elapitoxin-Aa2a (from UniProt P86522), the Ki is listed as 214 µM.
